Like-named read-outs stand apart in the source and are kept apart here.
Experiments:
Assay in all cases: crystal structure
[1] = molecular target: Chaetomium thermophilum Ahp1 C30S (Chaetomium thermophilum)
[2] = molecular target: Chaetomium thermophilum Ahp1 C30S (Chaetomium thermophilum); remark: listed apart in the source
[3] = molecular target: Chaetomium thermophilum Ahp1, wild type (Chaetomium thermophilum)

Chaetomium thermophilum Ahp1 C30S (enzyme)
stoichiometry N [1]: 2
stoichiometry N [2]: 2

Chaetomium thermophilum Ahp1, wild type (enzyme)
stoichiometry N [3]: 2

Source: PMC9574740
